This note sets out measurements from US20060093617A1.

In the first assay the target is HLA-A0301 (human).
Test: not given
Details: not given
One may read the Ki as a measure of affinity in units of concentration, obtained from inhibition or displacement. A higher Ki goes with a looser hold on the target. AAYAAQGYK (modifications not checked) came in with an inhibition constant (Ki) of less than 1000 nM.

The assay is the same for the next values; noted with them: remark: other sources report otherwise.
The molecule VTLTHPITK (modifications not checked) came in with a Ki of less than 1000 nM.

The next assay addresses HLA-A2402 (human).
Test: not given
Details: not given
The molecule IIMYAPTLW (modifications not checked) displayed a Ki of 0.8 nM. That is a sub-nanomolar value.
In turn, GLTHIDAHF (modifications not checked) returned an inhibition constant (Ki) of 3 nM.
Same read-out and setting: the figure for YYRGLDVSVI (modifications not checked) is 2 nM; for VILDSFDPL (modifications not checked) it is greater than 20000 nM.

The same assay, now with this note: remark: other sources report otherwise.
For the molecule RMILMTHFF (modifications not checked), the Ki was 6 nM.
Still for that read-out and setting: to NLPGCSFSI (modifications not checked) belongs 8 nM.

For the next assay, the target named is HLA-B0702 (human).
Test: not given
Details: not given
With TPAETSVRL (modifications not checked), the Ki is less than 1000 nM.

The assay is the same for the next values; noted with them: remark: other sources report otherwise.
For the molecule SPGQRVEFL (modifications not checked), the Ki was less than 1000 nM.
Still for that read-out and setting: the figure for APPPSWDQM (modifications not checked) is less than 1000 nM.
The same measure, in the same setting: to APTLWARMI (modifications not checked) belongs less than 1000 nM.

The next assay has as its target HLA-B0702 (human). The assay can be described thus: competition vs 125I probe peptide, purified HLA.
Details: not given
For the molecule APTGSGKST (modifications not checked), the Ki amounted to 370 nM.
Take ATLGFGAYM (modifications not checked): the Ki was 13000 nM.
Still for that read-out and setting: the figure for APLGGAARA (modifications not checked) is 115 nM.

Still in this assay, the particulars now being: remark: other sources report otherwise.
Molecule LPRRGPRLGV (modifications not checked) yielded a Ki of 3 nM.
The same measure, in the same setting: to APTLWARMIL (modifications not checked) belongs 1 nM; to ALAHGVRVL (modifications not checked), 7950 nM.

Another assay deals with HLA-A0201 (human). The assay can be described thus: competition vs 125I probe peptide, purified HLA-A*0201.
Details: not given
On to TLWARMILM (modifications not checked), for which the Ki was determined as 8 nM.
The same measure, in the same setting: to NIIMYAPTL (modifications not checked) belongs 70 nM; to KVLVLNPSV (modifications not checked), 50 nM.
The same measure, in the same setting: the figure for YQATVCARA (modifications not checked) is 20 nM; for VVSTLPQAV (modifications not checked) it is 884 nM; for MALYDVVST (modifications not checked) it is 1140 nM.
GMFDSSVLC (modifications not checked) displayed a Ki of 71 nM.
On the same count and under the same terms, to RLYIGGPLT (modifications not checked) belongs 536 nM; to YLFNWAVRT (modifications not checked), 29 nM.

Staying with this assay, now noted: remark: other sources report otherwise.
Take YIPLVGAPL (modifications not checked): the Ki came out at 77 nM.
On the same count and under the same terms, the figure for NLPGCSFSI (modifications not checked) is 70 nM; for IMACMSADL (modifications not checked) it is 66 nM.

Another assay has as its target HLA-B*0702 (human). The assay can be described thus: competition with 125I-labeled probe peptide, purified HLA.
Details: not given
Broadly, the IC50 is the concentration at which inhibition is half-maximal. Low values mean inhibition by little substance, high ones a need for much substance. For APTGSGKST (modifications not checked), the IC50 was 370 nM.
Still for that read-out and setting: to LPRRGPRLG (modifications not checked) belongs 124 nM.
On the same count and under the same terms, the figure for APLGGAARA (modifications not checked) is 115 nM.

A further assay addresses HLA-A0201 (human). The assay can be described thus: competition with 125I-labelled probe peptide, purified HLA.
Details: not given
The molecule CLVDYPYRL (modifications not checked) came in with an inhibition constant (Ki) of 437 nM.

The same assay, now with this note: remark: other sources report otherwise.
As for DLMGYIPLV (modifications not checked), the Ki is 36 nM. This lies in the double-digit nanomolar range.
Still for that read-out and setting: to ALAHGVRVL (modifications not checked) belongs 627 nM; to DLCGSVFLV (modifications not checked), 789 nM.

In a further assay the target is HLA-DRB1*0101 (human). The assay can be described thus: competition vs 125I-labelled probe peptide, purified HLA-DR.
Details: not given
Take PQTFQVAHLHAPTGS (modifications not checked) [… (SEQ ID NO 2192)]: the IC50 came out at 22 nM. This lies in the double-digit nanomolar range.
Consider GVNYATGNLPGCSFS (modifications not checked) [… (SEQ ID NO 2155)], for which the concentration for half-maximal inhibition (IC50) worked out at 4560 nM.
The same measure, in the same setting: to ASCLRKLGVPPLRVW (modifications not checked) [… (SEQ ID NO 2110)] belongs 4.9 nM; to ASQLSAPSLKATCTT (modifications not checked) [… (SEQ ID NO 2111)], 329 nM.
For the molecule RAAVCTRGVAKAVDF (modifications not checked) [… (SEQ ID NO 2199)], the IC50 was 619 nM.
On the same count and under the same terms, the figure for SKGWRLLAPITAYAQ (modifications not checked) [… (SEQ ID NO 2213)] is 0.4 nM.
Still for that read-out and setting: to GYKVLVLNPSVAATL (modifications not checked) [… (SEQ ID NO 2157)] belongs 8.4 nM.

The same assay, now with this note: remark: other sources report otherwise.
For the molecule DVVVVATDALMTGYT (modifications not checked) [… (SEQ ID NO 2125)], the 50% inhibitory concentration (IC50) was determined as 456 nM.
Still for that read-out and setting: the figure for TTIMAKNEVFCVQPE (modifications not checked) [… (SEQ ID NO 2226)] is 3730 nM.
The same measure, in the same setting: to LAGYGAGVAGALVAF (modifications not checked) [… (SEQ ID NO 2166)] belongs 137 nM; to GSSYGFQYSPGQRVE (modifications not checked) [… (SEQ ID NO 2153)], 11 nM; to WESVFTGLTHIDAHF (modifications not checked) [… (SEQ ID NO 2245)], 122 nM.
On the same count and under the same terms, the figure for ADLMGYIPLVGAPLG (modifications not checked) [… (SEQ ID NO 2105)] is 8330 nM.
For the molecule GARLVVLATATPPGS (modifications not checked) [… (SEQ ID NO 2137)], the IC50 is 173 nM.

A further assay has as its target HLA-B0702 (human). The assay can be described thus: competition with 125I-labelled probe peptide on purified soluble HLA. The conditions noted are these: remark: other sources report otherwise.
LPRRGPRLGV (modifications not checked) gave a Ki of 3 nM.
Still for that read-out and setting: to APTLWARMIL (modifications not checked) belongs 1 nM.

The target of another assay is HLA-A*0201 (human). The assay can be described thus: competition binding, purified soluble HLA, 125I-labelled probe peptide.
Details: not given
As to NIIMYAPTL (modifications not checked), the IC50 is 70 nM.
Same read-out and setting: to YQATVCARA (modifications not checked) belongs 20 nM.
Same read-out and setting: to YLFNWAVRT (modifications not checked) belongs 29 nM.

The assay is the same for the next values; noted with them: remark: other sources report otherwise.
As for IMACMSADL (modifications not checked), the IC50 came out at 66 nM.

A further assay has as its target HLA-A*0201 (human). The assay can be described thus: competition with radiolabeled probe peptide for purified soluble HLA-A*0201.
Details: not given
With KVLVLNPSV (modifications not checked), the concentration for half-maximal inhibition (IC50) was determined as 50 nM.
Same read-out and setting: to GMFDSSVLC (modifications not checked) belongs 114 nM.
On the same count and under the same terms, to QIVGGVYLL (modifications not checked) belongs 228 nM; to CLVDYPYRL (modifications not checked), 437 nM.

Still in this assay, the particulars now being: remark: other sources report otherwise.
The molecule YIPLVGAPL (modifications not checked) had a concentration for half-maximal inhibition (IC50) of 337 nM.
Still for that read-out and setting: to DLMGYIPLV (modifications not checked) belongs 83 nM.
On the same count and under the same terms, the figure for NLPGCSFSI (modifications not checked) is 83 nM; for FLLALLSCL (modifications not checked) it is 136 nM.

The target in a further assay is HLA-Cw0602 (human).
Test: not given
Details: not given
Consider GRRGIYRFV (modifications not checked), for which the Ki was 576 nM. This counts as sub-micromolar.
On the same count and under the same terms, the figure for VAYYRGLDV (modifications not checked) is 231 nM; for YRRCRASGV (modifications not checked) it is 634 nM.
In turn, GRKPARLIV (modifications not checked) had an inhibition constant (Ki) of 2040 nM. Compared with the last molecule, the Ki is about 3.2-fold higher.
On the same count and under the same terms, to RKPARLIVF (modifications not checked) belongs 8280 nM; to YAAQGYKVLV (modifications not checked), 9210 nM.

Staying with this assay, now noted: remark: other sources report otherwise.
As to NAVAYYRGL (modifications not checked), the inhibition constant Ki was 10800 nM.
The same measure, in the same setting: to TYSTYGKFL (modifications not checked) belongs 4860 nM.

In a further assay the target is HLA-Cw0702 (human).
Test: not given
Details: not given
DQRPYCWHY (modifications not checked) yielded an inhibition constant (Ki) of 710 nM.
On the same count and under the same terms, the figure for YRRCRASGVL (modifications not checked) is 83 nM.
Still for that read-out and setting: to TYSTYGKFL (modifications not checked) belongs 239 nM; to YYRGLDVSVI (modifications not checked), 87 nM.
